Test results reported in patent US20140179604A1 (U S A REPRESENTED BY THE DEPARTMENT OF VETERANS AFFAIRS, published 2014).
Non-standard residues stand in square brackets, D forms with d. No end group written: not given here. *: point of attachment. Desaminotyrosyl = O=C(CCc1ccc(O)cc1)*; NMeY = CN[C@@H](Cc1ccc(O)cc1)C(=O)O; Nle = CCCC[C@H](N)C(=O)O; Orn = NCCC[C@H](N)C(=O)O; dAbu = CC[C@@H](N)C(=O)O; Abu = CC[C@H](N)C(=O)O; Aoc = NCCCCCCCC(=O)O; GABA = NCCCC(=O)O

T1: GHRH receptor (membrane receptors of human anterior pituitary cells) (human) (UniProt Q02643)
T1 sequence (looked up): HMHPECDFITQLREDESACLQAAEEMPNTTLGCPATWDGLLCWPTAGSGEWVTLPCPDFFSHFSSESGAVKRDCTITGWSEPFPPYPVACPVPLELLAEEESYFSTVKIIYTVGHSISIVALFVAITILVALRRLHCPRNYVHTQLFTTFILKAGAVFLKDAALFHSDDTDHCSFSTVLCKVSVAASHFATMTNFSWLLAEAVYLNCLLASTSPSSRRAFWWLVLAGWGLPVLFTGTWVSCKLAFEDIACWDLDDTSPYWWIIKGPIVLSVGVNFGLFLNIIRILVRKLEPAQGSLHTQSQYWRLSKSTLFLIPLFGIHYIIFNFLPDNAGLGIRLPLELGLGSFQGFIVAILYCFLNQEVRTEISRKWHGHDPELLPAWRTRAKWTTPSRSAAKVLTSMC

T2: GHRH receptor (membrane receptors of human anterior pituitary cells) (human, UniProt Q02643 23-423)
T2 construct: whole, on cells; Native receptor in a membrane fraction of purchased normal human pituitaries, not intact cells; also called hGHRH receptor; human pituitary membrane homogenates
T2 sequence (looked up): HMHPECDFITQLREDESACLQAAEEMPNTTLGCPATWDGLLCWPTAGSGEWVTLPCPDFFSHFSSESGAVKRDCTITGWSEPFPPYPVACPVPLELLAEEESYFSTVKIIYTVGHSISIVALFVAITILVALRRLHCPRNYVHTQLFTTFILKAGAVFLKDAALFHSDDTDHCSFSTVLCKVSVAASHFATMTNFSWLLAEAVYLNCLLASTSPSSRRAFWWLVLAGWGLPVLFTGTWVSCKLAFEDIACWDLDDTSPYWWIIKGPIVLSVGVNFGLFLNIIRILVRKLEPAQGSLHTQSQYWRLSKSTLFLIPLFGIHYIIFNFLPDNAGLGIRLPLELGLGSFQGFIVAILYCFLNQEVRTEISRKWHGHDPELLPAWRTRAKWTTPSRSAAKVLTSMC


Tests used:
[1] = molecular target: T1, GHRH receptor (membrane receptors of human anterior pituitary cells) (human); assay: competition with 125I-JV-1-42, human pituitary membranes
[2] = molecular target: T2, GHRH receptor (membrane receptors of …); assay: as above
Text: Normal human pituitaries were purchased from the National Hormone and Peptide Program (A. F. Parlow, Los Angeles, County Harbor-UCLA Medical Center, Torrance, Calif.).

[3] = molecular target: T2, GHRH receptor (membrane receptors of …); assay: competition with 125I-[His1,Nle27]hGHRH(1-32)NH2, human pituitary membranes
Text: Normal human pituitary was purchased from the National Hormone and Peptide Program (UCLA Medical Center, Torrance, Calif.).

Row | IC50 [1] [nM] | Relative affinity (Binding potency) vs JI-38 [1] [JI-38 = 1] | IC50 [2] [nM] | Relative affinity (Binding potency) vs JI-38 [2] [JI-38 = 1] | IC50 [3] [nM] | Relative affinity (Binding potency) compared to JI-38 [3] [JI-38 = 1] | Relative affinity (Binding potency) compared to hGHRH(1-29) [3] | Binder
1 | 3.02 | 1.44 |  |  |  |  |  | YADAIFTNSYRKVLGQLSARKLLQDIMSRQ (peptide, from a related filing, N-Me-Tyr^1; Orn^12; Abu^15; Orn^21; Nle^27; Gab^30 (in place of Gln^30); C-terminal -NH-CH3) [P-27415 [N-Me-Tyr^1, Orn^12, Abu^15, Orn^21, Nle^27, Gab^30]hGHRH(1-30)NH-CH3]
2 |  |  | 1.44 | 3.02 | 2.85 | 0.96 | 2.68 hGHRH(1-29)NH2 = 1 | [Desaminotyrosyl][dAbu]DAIFTNSYR[Orn]VL[Abu]QLSAR[Orn]LLQDI[Nle]SR[GABA]-NH2 (SMILES CCCC[C@H](NC(=O)[C@@H](NC(=O)[C@H](CC(=O)O)NC(=O)[C@H](CCC(N)=O)NC(=O)[C@H](CC(C)C)NC(=O)[C@H](CC(C)C)NC(=O)[C@H](CCCN)NC(=O)[C@H](CCCNC(=N)N)NC(=O)[C@H](C)NC(=O)[C@H](CO)NC(=O)[C@H](CC(C)C)NC(=O)[C@H](CCC(N)=O)NC(=O)[C@H](CC)NC(=O)[C@H](CC(C)C)NC(=O)[C@@H](NC(=O)[C@H](CCCN)NC(=O)[C@H](CCCNC(=N)N)NC(=O)[C@H](Cc1ccc(O)cc1)NC(=O)[C@H](CO)NC(=O)[C@H](CC(N)=O)NC(=O)[C@@H](NC(=O)[C@H](Cc1ccccc1)NC(=O)[C@@H](NC(=O)[C@H](C)NC(=O)[C@H](CC(=O)O)NC(=O)[C@@H](CC)NC(=O)CCc1ccc(O)cc1)[C@@H](C)CC)[C@@H](C)O)C(C)C)[C@@H](C)CC)C(=O)N[C@@H](CO)C(=O)N[C@@H](CCCNC(=N)N)C(=O)NCCCC(N)=O, also called MR-504; Peptide 25504) [P-25504 [Dat^1, D-Abu^2, Orn^12, Abu^15, Orn^21, Nle^27, Gab^30]hGHRH(1-30)NH2]
3 |  |  | 2.74 | 1.59 | 2.6 | 1.05 | 2.94 hGHRH(1-29)NH2 = 1 | [Desaminotyrosyl][dA]DAIFTQSYR[Orn]VL[Abu]QLSAR[Orn]LLQDI[Nle]D[dR]-NHMe (SMILES CCCC[C@H](NC(=O)[C@@H](NC(=O)[C@H](CC(=O)O)NC(=O)[C@H](CCC(N)=O)NC(=O)[C@H](CC(C)C)NC(=O)[C@H](CC(C)C)NC(=O)[C@H](CCCN)NC(=O)[C@H](CCCNC(=N)N)NC(=O)[C@H](C)NC(=O)[C@H](CO)NC(=O)[C@H](CC(C)C)NC(=O)[C@H](CCC(N)=O)NC(=O)[C@H](CC)NC(=O)[C@H](CC(C)C)NC(=O)[C@@H](NC(=O)[C@H](CCCN)NC(=O)[C@H](CCCNC(=N)N)NC(=O)[C@H](Cc1ccc(O)cc1)NC(=O)[C@H](CO)NC(=O)[C@H](CCC(N)=O)NC(=O)[C@@H](NC(=O)[C@H](Cc1ccccc1)NC(=O)[C@@H](NC(=O)[C@H](C)NC(=O)[C@H](CC(=O)O)NC(=O)[C@@H](C)NC(=O)CCc1ccc(O)cc1)[C@@H](C)CC)[C@@H](C)O)C(C)C)[C@@H](C)CC)C(=O)N[C@@H](CC(=O)O)C(=O)N[C@H](CCCNC(=N)N)C(=O)NC, also called MR-401) [P-27401 [Dat^1, D-Ala^2, Gln^8, Orn^12, Abu^15, Orn^21, Nle^27, Asp^28, D-Arg^29]hGHRH(1-29)NH-CH3]
4 |  |  | 0.52 | 8.37 | 2.7 | 1.01 | 2.83 hGHRH(1-29)NH2 = 1 | [NMeY][dA]DAIFTQSYR[Orn]VL[Abu]QLSAR[Orn]LLQDI[Nle]DR-NHEt (also called MR-420; Peptide 28420) [P-28420 [N-Me-Tyr^1, D-Ala^2, Gln^8, Orn^12, Abu^15, Orn^21, Nle^27, Asp^28]hGHRH(1-29)NH-CH2-CH3]
5 | 2.99 | 1.45 |  |  |  |  |  | [NMeY]ADAIFTNSYR[Orn]VL[Abu]QLSAR[Orn]LLQDI[Nle]DR[Aoc]-NH2 (peptide, from a related filing, N-terminus assumed; SMILES CCCC[C@H](NC(=O)[C@@H](NC(=O)[C@H](CC(=O)O)NC(=O)[C@H](CCC(N)=O)NC(=O)[C@H](CC(C)C)NC(=O)[C@H](CC(C)C)NC(=O)[C@H](CCCN)NC(=O)[C@H](CCCNC(=N)N)NC(=O)[C@H](C)NC(=O)[C@H](CO)NC(=O)[C@H](CC(C)C)NC(=O)[C@H](CCC(N)=O)NC(=O)[C@H](CC)NC(=O)[C@H](CC(C)C)NC(=O)[C@@H](NC(=O)[C@H](CCCN)NC(=O)[C@H](CCCNC(=N)N)NC(=O)[C@H](Cc1ccc(O)cc1)NC(=O)[C@H](CO)NC(=O)[C@H](CC(N)=O)NC(=O)[C@@H](NC(=O)[C@H](Cc1ccccc1)NC(=O)[C@@H](NC(=O)[C@H](C)NC(=O)[C@H](CC(=O)O)NC(=O)[C@H](C)NC(=O)[C@H](Cc1ccc(O)cc1)NC)[C@@H](C)CC)[C@@H](C)O)C(C)C)[C@@H](C)CC)C(=O)N[C@@H](CC(=O)O)C(=O)N[C@@H](CCCNC(=N)N)C(=O)NCCCCCCCC(N)=O) [P-21301 [N-Me-Tyr^1, Orn^12, Abu^15, Orn^21, Nle^27, Asp^28, Amc^30]hGHRH(1-30)NH2]
